Measured values from publication PMC5123862, “Characterization of human translesion DNA synthesis across a UV-induced DNA lesion” (eLife, 2016).

Key:
[1] = target: T1, Cy5-labeled PCNA (human PCNA site-specifically labeled with Cy5 at amino acid residue 107) (human, UniProt P12004 1-261, Cy5 at amino acid residue 107); assay: FRET or BRET; competitive inhibition: pre-assembled Cy3-Pol η•Cy5-PCNA complex (200 nM Cy3-Pol η, 20 nM Cy5-PCNA) titrated with unlabeled competitor (PCNA, (Ub)3-PCNA or pol η, 0-5 μM); dose-response model, Ki from IC50 by the Munson-Rodbard solution; room temperature; replication assay buffer, ionic strength 200 mM; settings: both partners purified
T1 sequence (P12004 whole entry N107C): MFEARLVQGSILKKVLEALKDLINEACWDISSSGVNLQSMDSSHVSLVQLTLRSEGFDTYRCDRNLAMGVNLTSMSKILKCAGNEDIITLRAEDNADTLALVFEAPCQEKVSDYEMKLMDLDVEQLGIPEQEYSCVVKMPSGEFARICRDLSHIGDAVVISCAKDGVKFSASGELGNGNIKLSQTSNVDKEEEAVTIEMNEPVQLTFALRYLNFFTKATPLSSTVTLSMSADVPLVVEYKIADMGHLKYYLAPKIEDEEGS

[2] = target: T1, Cy5-labeled PCNA (human PCNA …); assay: FRET or BRET; holoenzyme assembly: RFC (100 nM), Cy5-PCNA (100 nM) and forked Cy3-P/T DNA (100 nM, biotin/Neutravidin) pre-incubated with 1 mM ATP, titrated with unlabeled pol η; FRET between DNA and PCNA (I670/I570); one-site binding model; room temperature; ionic strength 200 mM; settings: both partners purified

Ki [1]: 112 ± 15.5 nM
KD for Cy5-PCNA loaded on forked Cy3-P/T DNA (pol η holoenzyme formation) [2]: 28 ± 5.38 nM
B1: Pol η (human DNA polymerase eta, full length, wild type, unlabeled) (enzyme, UniProt Q9Y253 1-713, looked up)
chain: MATGQDRVVALVDMDCFFVQVEQRQNPHLRNKPCAVVQYKSWKGGGIIAVSYEARAFGVTRSMWADDAKKLCPDLLLAQVRESRGKANLTKYREASVEVMEIMSRFAVIERASIDEAYVDLTSAVQERLQKLQGQPISADLLPSTYIEGLPQGPTTAEETVQKEGMRKQGLFQWLDSLQIDNLTSPDLQLTVGAVIVEEMRAAIERETGFQCSAGISHNKVLAKLACGLNKPNRQTLVSHGSVPQLFSQMPIRKIRSLGGKLGASVIEILGIEYMGELTQFTESQLQSHFGEKNGSWLYAMCRGIEHDPVKPRQLPKTIGCSKNFPGKTALATREQVQWWLLQLAQELEERLTKDRNDNDRVATQLVVSIRVQGDKRLSSLRRCCALTRYDAHKMSHDAFTVIKNCNTSGIQTEWSPPLTMLFLCATKFSASAPSSSTDITSFLSSDPSSLPKVPVTSSEAKTQGSGPAVTATKKATTSLESFFQKAAERQKVKEASLSSLTAPTQAPMSNSPSKPSLPFQTSQSTGTEPFFKQKSLLLKQKQLNNSSVSSPQQNPWSNCKALPNSLPTEYPGCVPVCEGVSKLEESSKATPAEMDLAHNSQSMHASSASKSVLEVTQKATPNPSLLAAEDQVPCEKCGSLVPVWDMPEHMDYHFALELQKSFLQPHSSNPQVVSAVSHQGKRNPKSPLACTNKRPRPEGMQTLESFFKPLTH
notes: human DNA polymerase eta (pol η), single subunit; N-terminal catalytic core residues 1-475, C-terminal portion residues 476-713; also called unlabeled pol η; source: recombinant, purified from the pET21A-hPol η expression vector (modified protocol of Li et al., 2013)
